Test results as given in publication PMC3753320.
Where two headings read alike, the source gives them in different places.

Experiments:
[1] = target: rhOP-1 (BMP-7) (Homo sapiens) (UniProt P18075); assay: SPR; conditions: cited from earlier work
rhTGF-β (Homo sapiens) = rhTGF-β (Homo sapiens) (UniProt P01137); assay: SPR; conditions: cited from earlier work
rhBMP-2 (Homo sapiens) [2] = target: rhBMP-2 (Homo sapiens) (UniProt P12643); assay: SPR; conditions: cited from earlier work
[3] = target: Recombinant human transforming growth factor-β1 (TGF-β1) (human) (UniProt P01137); assay: SPR; Biacore T-100, CM5 chip, amine coupling, HBS-EP running buffer; TGF-β immobilised as ligand, Spp24 proteins as analytes; five concentrations of each analyte; kinetic constants by the manufacturer's software
rhBMP-2 (Homo sapiens) [4] = target: rhBMP-2 (Homo sapiens) (UniProt P12643); conditions: cited from earlier work
TGF-β1 (Homo sapiens) = TGF-β1 (Homo sapiens) (UniProt P01137); conditions: cited from earlier work
rhBMP-2 (Homo sapiens) [5] = target: rhBMP-2 (Homo sapiens) (UniProt P12643); conditions: cited from earlier work; remark: listed apart in the source

Sequence of Spp16.0, C-terminal truncation product of Spp24 (domain or fragment) (Q27967 24-203): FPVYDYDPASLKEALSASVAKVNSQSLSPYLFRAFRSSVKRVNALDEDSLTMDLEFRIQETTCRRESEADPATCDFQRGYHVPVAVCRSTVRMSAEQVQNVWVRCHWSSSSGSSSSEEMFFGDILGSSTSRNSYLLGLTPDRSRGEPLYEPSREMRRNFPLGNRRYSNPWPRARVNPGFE
Sequence of Spp18.1, C-terminal truncation product of Spp24 (domain or fragment) (Q27967 24-203): as above
Sequence of Spp14.5, C-terminal truncation product of Spp24 (domain or fragment) (Q27967 24-203): as above
Sequence of Recombinant human transforming growth factor-β1 (TGF-β1) (human) (P01137 279-390): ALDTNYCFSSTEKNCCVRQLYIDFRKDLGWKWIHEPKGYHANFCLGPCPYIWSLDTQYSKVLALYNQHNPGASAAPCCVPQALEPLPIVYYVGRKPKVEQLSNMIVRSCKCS
Sequence of rhBMP-2 (Homo sapiens) (P12643 283-396): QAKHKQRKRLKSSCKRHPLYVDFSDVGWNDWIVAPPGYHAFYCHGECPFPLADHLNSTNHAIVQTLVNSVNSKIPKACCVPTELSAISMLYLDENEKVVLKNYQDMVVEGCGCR
Sequence of fetuin TRH1 peptide (P12763 114-133): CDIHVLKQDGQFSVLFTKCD
Sequence of rhTGF-β (Homo sapiens) (P01137 279-390): as the sequence (P01137 279-390) above
Sequence of TGF-β1 (Homo sapiens) (P01137 279-390): as above
Sequence of rhOP-1 (BMP-7) (Homo sapiens) (P18075 293-431): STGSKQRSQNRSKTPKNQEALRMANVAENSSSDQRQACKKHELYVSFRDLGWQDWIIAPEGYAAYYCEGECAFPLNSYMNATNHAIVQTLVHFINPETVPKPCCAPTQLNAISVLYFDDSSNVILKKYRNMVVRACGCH

Substance	Kd [3] [nM]	koff [3] [s⁻¹]	kon [3] [M⁻¹ s⁻¹]	other results
BMP Binding Peptide (BBP) TRH1 domain (from UniProt Q27967)	–	–	–	Kd [1]: 11.6 nM; Kd (rhTGF-β (Homo sapiens)): 68 nM; Kd (rhBMP-2 (Homo sapiens) [2]): 53.3 nM
Spp14.5, C-terminal truncation product of Spp24 (domain or fragment)	1410	0.00589	4180	–
Spp16.0, C-terminal truncation product of Spp24 (domain or fragment)	3250	0.0122	5550	–
Spp18.1, C-terminal truncation product of Spp24 (domain or fragment)	1390	0.0106	10000	–
Spp24 TRH1 peptide (BBP)	–	–	–	Kd (rhBMP-2 (Homo sapiens) [4]): 30000 nM
fetuin TRH1 peptide	–	–	–	Kd (TGF-β1 (Homo sapiens)): > 10000 nM; Kd (rhBMP-2 (Homo sapiens) [5]): 2400 nM
